According to IntAct's records for PubMed 28515320:

B1: Nectin-2 (Homo sapiens), Q92692 (parent)
chain: MARAAALLPSRSPPTPLLWPLLLLLLLETGAQDVRVQVLPEVRGQLGGTVELPCHLLPPVPGLYISLVTWQRPDAPANHQNVAAFHPKMGPSFPSPKPGSERLSFVSAKQSTGQDTEAELQDATLALHGLTVEDEGNYTCEFATFPKGSVRGMTWLRVIAKPKNQAEAQKVTFSQDPTTVALCISKEGRPPARISWLSSLDWEAKETQVSGTLAGTVTVTSRFTLVPSGRADGVTVTCKVEHESFEEPALIPVTLSVRYPPEVSISGYDDNWYLGRTDATLSCDVRSNPEPTGYDWSTTSGTFPTSAVAQGSQLVIHAVDSLFNTTFVCTVTNAVGMGRAEQVIFVRETPNTAGAGATGGIIGGIIAAIIATAVAATGILICRQQRKEQTLQGAEEDEDLEGPPSYKPPTPKAKLEAQEMPSQLFTLGASEHSPLKTPYFDAGASCTEQEMPRYHELPTLEERSGPLHPGATSLGSPIPVPPGPPAVEDVSLDLEDEEGEEEEEYLDKINPIYDALSYSSPSDSYQGKGFVMSRAMYV
partner: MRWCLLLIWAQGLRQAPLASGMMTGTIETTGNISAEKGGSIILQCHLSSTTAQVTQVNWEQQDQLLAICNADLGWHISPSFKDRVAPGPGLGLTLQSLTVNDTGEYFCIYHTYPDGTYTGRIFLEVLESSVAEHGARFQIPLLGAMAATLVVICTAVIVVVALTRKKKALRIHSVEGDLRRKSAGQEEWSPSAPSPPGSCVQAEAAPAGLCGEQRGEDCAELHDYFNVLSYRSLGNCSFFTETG

Variants of: B1
Conditions: with tigit_human TIGIT

Variant | effect of a mutation on the interaction
A83V | decreasing interaction strength
A83R | decreasing interaction strength
L67A | decreasing interaction strength
L67Q | decreasing interaction strength
G90A | decreasing interaction strength
M89A | decreasing interaction strength
H86A | decreasing interaction strength

The remaining lines, values ahead:

effect of a mutation on the interaction | Variant
disrupting interaction strength | F145A
with no effect | E141A
with no effect | E101A
